According to IntAct's records for PubMed 22212508:

How the values were obtained:
hdgr2_mouse Hdgfl2 = hdgr2_mouse Hdgfl2 (UniProt Q3UMU9)

Measured: effect of a mutation on the interaction

Sequence of Hepatoma-derived growth factor (Mus musculus), P51859 S165A (P51859 whole entry S165A): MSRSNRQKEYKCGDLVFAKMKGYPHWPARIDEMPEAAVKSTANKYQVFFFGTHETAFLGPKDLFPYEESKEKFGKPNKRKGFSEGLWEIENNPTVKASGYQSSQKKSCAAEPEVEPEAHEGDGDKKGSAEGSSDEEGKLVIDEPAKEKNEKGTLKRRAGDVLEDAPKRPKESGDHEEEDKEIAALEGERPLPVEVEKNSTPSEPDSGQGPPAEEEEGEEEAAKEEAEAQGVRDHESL
Sequence of hdgr2_mouse Hdgfl2 (Q3UMU9 whole entry): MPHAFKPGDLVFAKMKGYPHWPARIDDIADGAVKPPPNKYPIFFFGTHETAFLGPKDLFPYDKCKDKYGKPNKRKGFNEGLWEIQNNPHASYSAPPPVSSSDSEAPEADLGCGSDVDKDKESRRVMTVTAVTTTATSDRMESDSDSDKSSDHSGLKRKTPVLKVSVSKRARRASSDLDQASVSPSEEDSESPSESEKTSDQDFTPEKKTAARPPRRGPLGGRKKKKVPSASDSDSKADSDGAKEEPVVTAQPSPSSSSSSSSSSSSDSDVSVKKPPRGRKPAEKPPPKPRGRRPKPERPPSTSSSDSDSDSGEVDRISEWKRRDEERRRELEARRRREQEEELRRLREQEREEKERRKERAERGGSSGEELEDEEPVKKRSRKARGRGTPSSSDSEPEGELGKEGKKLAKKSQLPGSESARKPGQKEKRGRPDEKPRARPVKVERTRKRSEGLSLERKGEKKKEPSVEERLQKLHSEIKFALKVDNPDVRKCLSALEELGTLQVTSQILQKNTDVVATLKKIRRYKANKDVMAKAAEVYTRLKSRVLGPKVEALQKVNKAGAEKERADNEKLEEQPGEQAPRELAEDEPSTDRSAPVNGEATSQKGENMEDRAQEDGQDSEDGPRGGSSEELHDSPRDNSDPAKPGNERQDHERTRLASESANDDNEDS
Sequence of q3umu9-1, Q3UMU9-1 (Q3UMU9 whole entry): as above
Sequence of q3umu9-3, Q3UMU9-3 (Q3UMU9 other isoform, or with tags, fused parts or gaps): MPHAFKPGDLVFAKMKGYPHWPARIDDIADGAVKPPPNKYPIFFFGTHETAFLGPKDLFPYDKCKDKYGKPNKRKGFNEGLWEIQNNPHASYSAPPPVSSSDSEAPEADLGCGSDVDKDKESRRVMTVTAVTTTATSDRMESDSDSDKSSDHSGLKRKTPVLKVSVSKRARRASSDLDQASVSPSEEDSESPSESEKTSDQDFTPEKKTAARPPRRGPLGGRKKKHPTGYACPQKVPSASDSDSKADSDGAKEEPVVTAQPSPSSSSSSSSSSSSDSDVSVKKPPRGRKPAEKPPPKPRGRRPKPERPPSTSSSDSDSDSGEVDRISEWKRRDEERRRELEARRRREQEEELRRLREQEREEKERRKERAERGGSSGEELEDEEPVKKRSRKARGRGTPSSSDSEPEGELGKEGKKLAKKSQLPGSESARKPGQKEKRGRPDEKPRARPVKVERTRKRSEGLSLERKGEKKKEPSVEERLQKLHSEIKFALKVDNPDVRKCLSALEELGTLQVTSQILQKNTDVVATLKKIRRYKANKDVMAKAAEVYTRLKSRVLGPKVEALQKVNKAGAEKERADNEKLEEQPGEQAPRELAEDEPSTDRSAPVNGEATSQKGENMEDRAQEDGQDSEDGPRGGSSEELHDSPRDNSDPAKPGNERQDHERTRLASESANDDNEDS

Hepatoma-derived growth factor (Mus musculus), P51859 S165A
increasing interaction: q3umu9-1, Q3UMU9-1 | q3umu9-3, Q3UMU9-3 | hdgr2_mouse Hdgfl2
